Patent publication US20060270596A1 (CENTRE NATIONAL DE LA RECHERCHE SCIENTIFIQUE CNRS, published 2006)

What was measured:
[1] = molecular target: T1, THAP1-C3 deletion mutant (amino acids 143-213) (human, UniProt Q9NVV9 143-213); experiment: in vivo interaction test: GFP-THAP1 mutant and myc-Par4DD co-expressed in primary human endothelial cells, confocal immunofluorescence
T1 construct: Gal4 fusion, in vitro translation product or GFP fusion according to assay
T1 sequence: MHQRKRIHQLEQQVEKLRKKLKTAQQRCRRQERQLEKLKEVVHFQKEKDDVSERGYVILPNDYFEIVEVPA
Source text: (§1) To provide further evidence for a physiological interaction between THAP1 and Par4 in vivo interactions between THAP1 and PAR4 were investigated. For that purpose, confocal immunofluorescence microscopy was used to analyze the subcellular localization of epitope-tagged Par4DD in primary human endothelial cells transiently cotransfected with pEF-mycPar4DD eukaryotic expression vector and GFP or GFP-THAP1 expression vectors (pEGFP.C2 and pEGFP.C2-THAP1, respectively). To generate pEF-mycPar4DD, mycPar4DD (amino acids 250-342) was amplified by PCR using pGBKT7-Par4DD as template, with primers myc.BD7 (5′-[…]-3′) (SEQ ID NO: 195) and Par4.9 (5′-[…]-3′) (SEQ ID NO: 196), and cloned into the XbaI and NotI sites of the pEF-BOS expression vector (Mizushima and Nagata, Nucleic Acids Research, 18:5322, 1990). Primary human endothelial cells from umbilical vein (HUVEC, PromoCell, Heidelberg, Germany) were grown in complete ECGM medium (PromoCell, Heidelberg, Germany), plated on coverslips and transiently transfected in RPMI medium using GeneJammer transfection reagent according to manufacturer instructions (Stratagene, La Jolla, Calif., USA). Cells co-transfected with pEF-mycPar4DD and GFP-tagged expression constructs were allowed to grow for 24 h to 48 h on coverslips. Cells were washed twice with PBS, fixed for 15 min at room temperature in PBS containing 3.7% formaldehyde, and washed again with PBS prior to neutralization with 50 mM NH₄Cl in PBS for 5 min at room temperature. Following one more PBS wash, cells were permeabilized 5 min at room temperature in PBS containing 0.1% Triton-X100, and washed again with PBS. Permeabilized cells were then blocked with PBS-BSA (PBS with 1% bovine serum albumin) for 10′ and then incubated 2 hr at room temperature with mouse monoclonal antibody anti-myc epitope (mouse IgG1, 1/200, Clontech) diluted in PBS-BSA. Cells were then washed three times 5 min at room temperature in PBS-BSA, and incubated for 1 hr with Cy3 (red fluorescence)-conjugated goat anti-mouse (1/1000, Amersham Pharmacia Biotech) secondary antibodies, diluted in PBS-BSA. After extensive washing in PBS, samples were air dried and mounted in Mowiol. Images were collected on a Leica confocal laser scanning microscope.

[2] = molecular target: T2, THAP1-C1 deletion mutant (amino acids 90-213) (human, UniProt Q9NVV9 90-213); experiment: as above
T2 construct: Gal4 fusion, in vitro translation product or GFP fusion according to assay; also called THAP1-CL; THAP1ΔTHAP
T2 sequence: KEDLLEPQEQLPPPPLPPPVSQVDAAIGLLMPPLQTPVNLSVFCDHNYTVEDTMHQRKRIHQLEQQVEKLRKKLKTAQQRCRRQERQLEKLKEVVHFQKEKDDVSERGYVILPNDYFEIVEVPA
Source text: as §1

[3] = molecular target: T3, THAP1-N3 deletion mutant (amino acids 1-192) (human, UniProt Q9NVV9 1-192); experiment: as above
T3 construct: Gal4 fusion, in vitro translation product or GFP fusion according to assay
T3 sequence: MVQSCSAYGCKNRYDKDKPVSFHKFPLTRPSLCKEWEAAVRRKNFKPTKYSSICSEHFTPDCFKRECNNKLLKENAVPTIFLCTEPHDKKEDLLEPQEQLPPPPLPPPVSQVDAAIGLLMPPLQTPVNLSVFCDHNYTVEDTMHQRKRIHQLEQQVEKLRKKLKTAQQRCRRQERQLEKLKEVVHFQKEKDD
Source text: as §1

[4] = molecular target: T4, THAP1-C2 deletion mutant (amino acids 120-213) (human, UniProt Q9NVV9 120-213); experiment: as above
T4 construct: Gal4 fusion, in vitro translation product or GFP fusion according to assay
T4 sequence: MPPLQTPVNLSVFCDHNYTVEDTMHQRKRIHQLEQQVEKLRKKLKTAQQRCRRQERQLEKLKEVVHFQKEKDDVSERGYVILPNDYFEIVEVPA
Source text: as §1

human THAP3, full length = molecular target: T5, human THAP3, full length (human, UniProt Q8WTV1 1-239); experiment: yeast two-hybrid, Par4DD bait
T5 construct: Two-hybrid fusion or 35S-labelled in vitro translation product
T5 sequence: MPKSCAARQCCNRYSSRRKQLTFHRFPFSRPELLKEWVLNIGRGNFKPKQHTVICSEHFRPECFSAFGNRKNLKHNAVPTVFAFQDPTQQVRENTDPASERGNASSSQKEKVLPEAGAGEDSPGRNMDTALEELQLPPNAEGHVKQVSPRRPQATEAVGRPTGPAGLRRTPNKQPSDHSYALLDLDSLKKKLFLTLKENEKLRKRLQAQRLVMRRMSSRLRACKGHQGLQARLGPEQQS

human THAP2, full length = molecular target: T6, human THAP2, full length (human, UniProt Q9H0W7 1-228); experiment: yeast two-hybrid, Par4DD bait
T6 construct: Two-hybrid fusion or 35S-labelled in vitro translation product
T6 sequence (Q9H0W7 whole entry, the tested form may be a part): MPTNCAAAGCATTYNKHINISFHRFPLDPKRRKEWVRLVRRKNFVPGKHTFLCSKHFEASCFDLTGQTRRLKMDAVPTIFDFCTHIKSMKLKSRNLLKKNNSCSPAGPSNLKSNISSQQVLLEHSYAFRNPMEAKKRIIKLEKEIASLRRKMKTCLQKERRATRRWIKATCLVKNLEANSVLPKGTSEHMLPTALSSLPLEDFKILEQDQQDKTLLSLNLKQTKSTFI

Measured: binding result

B1: Par4 leucine zipper/death domain (Par4DD, amino acids 250-342) (other)
chain: GFPRYNRDANVSGTLVSSSTLEKKIEDLEKEVVTERQENLRLVRLMQDKEEMIGKLKEEIDLLNRDLDDIEDENEQLKQENKTLLKVVGQLTR
notes: Gal4 fusion in two-hybrid; also called myc-Par4DD
binds: all assays above
